# From the DeepSol protein solubility set
# Assay: soluble on expression in E. coli; label from the status in PepcDB or PDB records
row,Sequence,soluble on expression in E. coli
1,MNSQNSQKSSSFDDFAGQVVIYTEIGNSKCAKGRDLLHREGIPYTDVSLDSFPQHSQEIFDRTGTDVLPQIFFNNIYIGHETDLERVIGETNKWESLVEHVRREKCTNGGPIVPHPMNAIGFEEYETENNNKCCDEVLWVPDEYSKLVRDMKNAQLIKNNRVKLKVYRNSFKGEELVEWLMRQKGIKRSEALEIGQELIDRHVGQQTSKESGMTFSPDRYYQLVEDDENKPLNAGEDDGDKKQSFPVAECNEKFSKLLKPIFNDILTDDNQSIIYGGLSTNDNFTRYLQFSRELNHVTFEGSTSDDRLTFFINVYNMMLIHITLKHGPPIGIWQRRKLVNGTYYLIGGHRYALHSIINGILRGNKKGPGMLWKAFGKQDARLPISLAVCDPLIYFSLCSGSKTTPPLRVYHSKSIHQEMRENARQTLLRGDKFLRVDMKKNVIHLGKTFKWFSDDFGGSTEKILQWILDVLDTNESDKKHNLQKLFFTGEYSIEYIPYDWSTNGRMDEKEREDIDGGGGGGGDVRRTKTIE,not soluble
2,MSLYKTADGREIFIVDAHTHFWDGSPENQRNIHGKQFVDCFYAYHSALSPPEEKWEKSRFEKYSEDDIYRDLFVDGPDDMAIIQTTVLGDFYKTGFGCIERSTRMAARNPGRFIVNGAFDPRDGEKALEYIHYMKETHDITGVKLYTAEWHGDSRGWKLTDPAAYKCFELCDKLGIRNMHVHKGPTIIPLSKDSFSVGDVDDAATDFQGLNWIVEHCGLPRLDDFCWIAVQETNVYGGLAVALPFIHTRPRYFAEVIAELLFWLGPDKILFGSDYAIWTPKWLVDRFWNFQIPEDIAAERGVQLTDEIKEKILGLNAARLYGIDVDAKRRDFADHPVLIAAEGHHHHHH,soluble
3,MNLIGKWIVGVGESVLNRMPLVRPIYKSIKQLFESVLKEHSNSFKKVGLIEFPSSGTWAMVFVSSEVKGELAHRFNEMGQQMVAVFLPPTPVPTAGFLLFVPKDKIVMLDMTPEDAAKLLISGGLVAPDFTPPKVIAPVLEHHHHHH,soluble
4,MPLFGSIFSPKKTPPRKSASLSNLHSLDRSTRELELGLDYGTPTMNLAGQSLKFENGQWVADSVISGGVDRRETQRLRKRNQQLEEENNLLRLKVDILLDMLSETTAESHLKDKELDELKVTNRRRK,not soluble
5,MGSDKIHHHHHHMNELTEFNARNDLDNELASTVSDILAKAIKEKGKASIAVSGGSTPKGFFSVLSQSDIDWSKVTITLADERWVPIDSEASNTRLVHENLLQNKAEKAKFFHLKQGDELTDETLEDLNVAASKILLPLDVLILGMGEDGHTASLFPCSDQITSGLDETNDAALLKVQPKTAPHQRISFTFASLMTSKNIFLHSCGEGKKTVLTQVLNGDDPFEMPIRAFLQHPSLNTQIFWAP,not soluble
6,MGSDKIHHHHHHMGIDIKHEESSLVGLLTYIGRLKDEQFDYVIDLHNVIRSKIIRFYLRFFGVKGFSLKKPRLQLRQLTAKPPKKPTRLPSVIERYAQVFHKAGLEIHPPYPILLNDSGHISTELPIVEIGSGHHLIGIAPFAGHEAKTYPPEKMHEVVRTLAERDDVQIFLFGGKGKEKNILEQWADESPRIVSVAGLLSLPEELSLIHALRCMVSMDSANMHFASLVGTRVISIWCATHPAAGFLGYGQRIEDCIGADLDCRPCSVFGNKPCFRKDYACRTQIEPQLIINKIVSTLTDLNSDETEN,not soluble
7,QTNNDEELQDMSDPLAVYTQAGFGITDKGANIKIGQTYQSSQPGTMAMNIIEMKGIGGELFGIRDNDDPMYANVDDSIDSFRLRNFQVEVAKGLGRQLDVNYDVDNDKLDASYSFIQGLPK,not soluble
8,MELRVGNRYRLGRKIGSGSFGDIYLGTDIAAGEEVAIKLECVKTKHPQLHIESKIYKMMQGGVGIPTIRWCGAEGDYNVMVMELLGPSLEDLFNFCSRKFSLKTVLLLADQMISRIEYIHSKNFIHRDVKPDNFLMGLGKKGNLVYIIDFGLAKKYRDARTHQHIPYRENKNLTGTARYASINTHLGIEQSRRDDLESLGYVLMYFNLGSLPWQGLKAATKRQKYERISEKKMSTPIEVLCKGYPSEFATYLNFCRSLRFDDKPDYSYLRQLFRNLFHRQGFSYDYVFDWNMLKFGASRAADDAERERRDREERLRH,soluble
9,MAFRSKFAVLDESWTYVRVRRGPRRQNLWIWNALIDGVPFFVTGDRDYNTFRLLWLSLPKCEVHYTDDYPIYQVLYHHVVGKKYTHTVESYNSFCRSHLVRLARDTKAVNRSRAMIDYSLDLLNVMYPQLEHHHHHH,not soluble
10,MAHHHHHHMDDGTRIPEDVEVFLRAARAKDTFKCAELLKETPSLINSVEAGGFSALHFAAFNGDLEMIRILLEFKPNLELRNYDNNTPLIMAAKGHQNSAIKLLVDAGAEVNLRTPTGGTAAHFAASMGYVDTVRCLVELGADVMHEDSETGTLLHWAAHSGDINCIGEMIYGFKIPINVKDAHGGTALFTALFMKKFEAVEFLLEHGADPRVMIEGDKSTPLHIAVEHANTECVKLLLVFGADPHVANTSGETPTSLAEKAKNNSALRELMKPMLSEEKRKEEAARFKTQGNKVFEGGENVKAAKFYTLAIHLDSTNHVFFSNRAAAYFNQRYYNGAYWDSLRCISLAPDWPKGYFRKAATELAMKKADEALQTCERGLRLDPKNKDLLTIKEEARRQRNK,soluble
11,MAHHHHHHMCACTYSYPRAAHGHDGTTSQLFTRKRIFTLPQLHRSYFLKLLFVQKPLSNPLLAVSLHLTFHQHHSLLGPSVACRAHKHMINYYAKCRARNHTEGEGRCLAFRGMY,not soluble
12,TKDWKWKLSFNATTYKNKITSLPAEEMWSGNKKWVKGGSLYDFYLVEWAGVNPENGNPTWYRYNTNGEKITTEDYSSTTPDDKVKCGNSLPDWTGGLQSDLSFKDFTLSFLFSYSIGGKIYNGDKVSLMSQGPTGTGWSVDMLDRWTPENPYTDVPRLTTSPKSSWTNSSNRFLVDRSYLRLKNITFSYNLPKSLLNTLTLKDASIFFQAENMLTLAKQQGLDPEQTFGGSTYYRYPAMKTISFGINVKL,not soluble
13,FASFSNFTLKYHEKRFQQYGYGLMLNDTNFPGGSSGSPLIGKDNKLNSIYFGVLEIYQSGSLARNDIGMSQILRTPQ,not soluble
14,MKLYSILVFHKNVDTSDVKLFKSECDLSSFSFFQRGSVQEFMTFTAKLLVERSGLGARSSVKENEYLVHCYVRNDGLSAVCVTDAEYQQRVAMSFLGRVLDDFTTRVPATQWPGIRSDKDCSYTGLKDLLEKWQNPREADPMTRVQEEVEETKMVMHNTIQSVLDRGEKLDDLVKKSENLSDQSKMFYTSARKMNKCCNYV,not soluble
15,SNRLPDDYDPYAVEEPSDEEPALSSSEDEVDVLLHGTPDQKRKLIRECLTGESESSSEDEFEKEMEAELNSTMKTMEDKLSSLGTGSSSGNGKVATAPTRYYDDIYFDSDSEDEDRAVQVTKKKKKKQHKIPTNDELLYDPEKDNRDQAWVDAQRRGYHGLGPQRSREQQPVPNSDAVLNCPACMTTLCLDCQRHESYKTQYRAMFVMNCSINKEEVLRYKASENRKKRRVHKKMRSNQEDAAEKAETDVEEIYHPVMCTECSTEVAVYDKDEVFHFFNVLASHS,soluble
16,MSLSDSRSDDRHPSVTPEQLATLSHEFRTPLNGVLGMARLLENTKLTAEQRSYVTALRESGDHLLSLVNDVLHFARLGAAAIELSLAPVDIEGLLRQVAELMSPRAHEKGIEIAWAVSSPLPTILADEGRLRQILLNFAGNAVKFTEAGGVLLTASAIDGGRVRFSVADTGPGVAPDARARIFEAFVQTDVTHATQLGGAGLGLAIVSRLSAAMGGAVGVGGELGQGAEFWFEAPFATAAAPLRAAPLEGRNVAIASPNAIVRAATARQIEAAGGRAYAAVDIASALAGAPADAVLLIDAALSGPRGALKPPAGRRSVVLLTPEQRDRIDRLKAAGFSGYLIKPLRAASLVAQVLQAVTADGVAEDEPAHDDRIAGAVASGARVLLAEDNPINALLARTLLEREGCIVDRVADGEQAIAAASAGVYDLILMDLRMPGLTGIEAARALRAKGVATPIAALTADAFDEDRRTCLAAGMDDFLVKPLTQEALRDALKRWTTGGVSGEGHHHHHH,soluble
17,MSAKNRLDVFDKKTRDVIESDLVKMRGYKRNIGSRNQEMTMKNVEKKVEQMGAKNEEMFSMISKIMQKPNSTGHLQWDSQTLADLMNKSDSFDDDQESLNMPRSSESSAMSVRNRTLERQSEPVRKSPKAAPKVKNEAGITASYVTSEMSDRRSIDEVMVRAAKNAKREEKFDLGFFKFISLAGHILESSCKHSEDQEDPSCLKCKYDRELKLEERPEMVFARNSLTIQFGRLGSIEFNALDALKMVCADRLPDVKVGASTVWQSARQDRIQQISEHQKPFDWTYTTHYKGTVTGCQVTPTTERIDMERLKRRDEILFSSSITLFEDELADHGIAQLLARVRVMRGYFFVLLRFYMRVDNVLLRVCDTRIVGNEFDGHVIREWQLREAKYGNLGHVDPEELLDVDRAWMHLPVVEEHFDRVSVDRERLF,not soluble
18,AIYHLTAKTGSRSGGQSARAKADYIQREGKYARDMDEVLHAESGHMPEFVERPADYWDAADLYERANGRLFKEVEFALPVELTLDQQKALASEFAQHLTGAERLPYTLAIHAGGGENPHCHLMISERINDGIERPAAQWFKRYNGKTPEKGGAQKTEALKPKAWLEQTREAWADHANRALERAGH,soluble
19,MGSDKIHHHHHHMKVVIVGNGPGGVELAKQLSEEHEVTIVERETVPYYTKPMLSHYVAGLAEEKSLFPYPIDWYEKKGIKLLLGTTAKRIDAEKKVLETDRGTLEYDVLVLATGAKPRTLKIPGWERMYTLRTIEDAKRLKGAVEREKDLLIIGGGFIGLEIAGNLSKQGIKVKVVEKMTRLMGLDEELTERIKGELEKHGVEFYLGRDVERIENDVLVTDKEEIPARVILCSIGIVPEVSLAKESGLDVNRGILVDKTFRTSKPDIYAIGDCAEHEGIICGTAKAAMAHAKVLANTLKGIPDEYDFHFRSSYFKFGDFPIAIVGELTDRGEWIDSETKSFYRDEKIVGVVVLSDVRKAREWEERLRSTR,not soluble
20,MRGSHHHHHHPEYDYIRDGNAIYERSFAIIRAEADLSRFSEEEADLAVRMVHACGSVEATRQFVFSPDFVSSARAALKAGAPILCDAEMVAHGVTRARLPAGNEVICTLRDPRTPALAAEIGNTRSAAALKLWSERLAGSVVAIGNAPTALFFLLEMLRDGAPKPAAILGMPVGFVGAAESKDALAENSYGVPFAIVRGRLGGSAMTAAALNSLARPGL,soluble
21,MGSDKIHHHHHHVKIRLALPQDVDLLAMLEKKHLNDELASANMGLQGQAFSHSELSELVQRHWVVVAQVEQQIVGYVIAGRWGFFEHWPIYRTLLNRLGQLDWDGPKLTKTNSCQYGPIWVQQAYRGQGIFEALVSEIRRQVAPHFSYMLTFIAEDNERSFAAHSGKAHMQVVDFFTVSARDYYLMAAKTQA,not soluble
22,MADDLGLDLGKKKKSKKVIKIDGDDAPVETGVEAVEDGLGELNLGAKKKKKTPKTAGEEVVEEKVPTLEIGIGAQNLIDAKGAWPDYTYEEALTLVYQVMKDKNPDFAGDKKKFAIKLPEVARAGSKKTAFSNFLEICRLMKRQDKHVLQFLLAELGTTGSIDGSNCLIVKGRWQQKQFESVLRKYIKEYVMCHTCKSPETQLTKDTRLFFLQCTNCGSRCSVTAIKSGFKAVVGKRAAIRRAEEATAGK,not soluble
23,MSKVLVLKSSILAGYSQSGQLTDYFIEQWREKHVADEITVRDLAANPVPVLDGELVGAMRPGDAPLTPRQQDALALSDELIAELKAHDVIVIAAPMYNFNIPTQLKNYFDLIARAGITFRYTEKGPEGLVTGKRAVVLSSRGGIHKDTPTDLIAPYLKVFLGFIGITDVNFVFAEGIAYGPEVAAKAQADAKAAIDSVVAA,soluble
